The target in the assay is CD33 on MV-4-11 human AML cells (human) (UniProt P20138). In words: flow cytometry, cell-cell binding: HA-positive erythroid cells within the CFSE-positive MV4-11 population (negative control). For orientation: Flow cytometry measures light scatter and fluorescence of single cells or particles in a stream.
UniProt P20138, sequence (P20138 18-364 limits assumed): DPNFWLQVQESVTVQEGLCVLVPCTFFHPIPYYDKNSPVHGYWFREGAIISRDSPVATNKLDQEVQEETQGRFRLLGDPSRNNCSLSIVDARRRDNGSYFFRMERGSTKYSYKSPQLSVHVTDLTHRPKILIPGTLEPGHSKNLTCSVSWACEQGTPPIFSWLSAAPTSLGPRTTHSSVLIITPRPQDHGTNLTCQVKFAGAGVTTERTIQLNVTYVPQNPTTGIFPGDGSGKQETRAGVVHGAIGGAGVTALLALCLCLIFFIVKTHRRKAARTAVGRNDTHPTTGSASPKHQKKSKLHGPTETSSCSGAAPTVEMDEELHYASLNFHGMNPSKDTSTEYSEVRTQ

“HA-GPA (HA tag-Glycophorin A) expressed on erythroid cells, negative control”: the percent of erythroid cells positive for binding to MV4-11 was 10.7%.

Source of the values: patent US20190160102A1.
